± gives the standard deviation.

A short description of the series: protein stability index of a GFP-peptide fusion (GPS, HEK-293T) (PSI 1-6); higher = more stable. To be noted: c terminus: a fixed tail appended.
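Further: 24-mer peptide tiles fused after GFP, lentivirally expressed, FACS-sorted into six equal bins by GFP/DsRed ratio, decoded by Illumina sequencing, PSI is the read-weighted mean bin number.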

As for QYVYIAVMDYLPISSTSTKRTYWP [PLD5], the protein stability index by setting is: (treatment: DMSO) 3.01 ± 0.59; (treatment: MLN4924 1 uM, 8 h) 2.74 ± 0.29.
For RIFTFICKDSESNKHLCYVFDSEK [GULP1] the same measures were 2.06 ± 0.56 and 2.21 ± 0.31.
For NDFWRIEVVNRKFGNRIKVLRSRI [POMT2] the same measures were 2.19 ± 0.6 and 2.17 ± 0.48.
For IQLGVTPPGYSAWIKEEAAERYLY [SLC6A17] the same measures were 2.31 ± 0.25 and 2.36 ± 0.15.
In the case of GADGVMRTMAPEKLLKSMPILQGQ [SNAP91], the protein stability index stood at 3.76 ± 0.32 (treatment: DMSO) and 3.77 ± 0.28 (treatment: MLN4924 1 uM, 8 h).
As for FSKASDSLQLVFGIELMEVDPIGH [MAGEA6], the protein stability index by setting is: (treatment: DMSO) 2.27 ± 0.56; (treatment: MLN4924 1 uM, 8 h) 2.42 ± 0.41.
For ELIRNIYNSFHKLRDRAERIASRA [SNX8] the same measures were 2.22 ± 0.75 and 2.17 ± 0.27.
For RPSSILPPRRGVSGDRDENSFSLN [MAP2] the same measures were 4.67 ± 0.09 and 4.63 ± 0.12.
For AEKLKVQALKDRGLSIPRADTLDE [LSM1] the same measures were 4.93 ± 0.3 and 4.98 ± 0.22.
As to NTTCVGRYPVCKFPSLQVTAILIE [FEM1C], the protein stability index runs as follows: (treatment: DMSO) 2.67 ± 0.48; (treatment: MLN4924 1 uM, 8 h) 2.23 ± 0.21.
Sequence VIRRLDETVVNRIAAGEVIQRPAN [MLH1] displayed a protein stability index (treatment: MLN4924 1 uM, 8 h) of 3.92 ± 0.28.
Take SCLLLQLRREKPSEEMVKMVLSRP [INTS3]: the protein stability index reads like this: (treatment: DMSO) 2.64 ± 0.67; (treatment: MLN4924 1 uM, 8 h) 2.42 ± 0.34.
On to IAVAWIYGTKKFMQELTEMLGFRP [SLC6A17], for which the protein stability index reads like this: (treatment: DMSO) 2.62 ± 0.78; (treatment: MLN4924 1 uM, 8 h) 2.1 ± 0.61.
For LYLQLAICSSLQNLEKTIFCLQKL [C8orf76] the same measures were 3.12 ± 0.69 and 3.2 ± 0.099.
For CQALDANLDANLAFASFTSGVVRI [TLE6] the same measures were 2.66 ± 0.67 and 2.56 ± 0.37.
Consider AGTPGYLSPEVLRKDPYGKPVDMW [CAMK2D], for which the protein stability index was found to be 3.34 ± 0.5 (treatment: DMSO) and 3.25 ± 0.42 (treatment: MLN4924 1 uM, 8 h).
Take ICKSDAPTGDVLLDEALKHVKETQ [GOLPH3]: the protein stability index by setting is: (treatment: DMSO) 4.64 ± 0.3; (treatment: MLN4924 1 uM, 8 h) 4.72 ± 0.16.
For GMPSSLAHRIAAQTLLGTAKMLLH [PYCR3] the same measures were 2.4 ± 1.2 and 2.29 ± 0.3.
For TLPLTLIVILENIAVAWIYGTKKF [SLC6A17] the same measures were 3.03 ± 0.34 and 3.35 ± 0.43.
Take EALYAQDPSTGCYMYYFQYLSKTY [KMT5A]: the protein stability index reads like this: (treatment: DMSO) 3.26 ± 0.94; (treatment: MLN4924 1 uM, 8 h) 2.42 ± 1.1.
For THMYLQSDDEMELEETEPPLEPED [P3H4] the same measures were 5.4 ± 0.2 and 5.38 ± 0.29.
For LKSLDKEISEAFTSTGFDRHTSPV [BCL2L13] the same measures were 3.98 ± 0.36 and 4.12 ± 0.44.
For LEAQVESLKEELMCLKKNHEEEVS [KRT36] the same measures were 5.47 ± 0.42 and 5.46 ± 0.15.
On to VYDQAVSIFYDLPQGSGFCLGQLN [SMAD6], for which the protein stability index amounted to 2.03 ± 0.24 (treatment: DMSO) and 2.16 ± 0.32 (treatment: MLN4924 1 uM, 8 h).
Turning to AKARDLYKGRQLQGCPGAKKHEFL [SMOC2], the protein stability index is, setting by setting: (treatment: DMSO) 3.03 ± 0.3; (treatment: MLN4924 1 uM, 8 h) 3.2 ± 0.34.
For MFIPETKGCSLEQISMELAKVNYV [SLC2A12] the same measures were 2.33 ± 0.62 and 2.39 ± 0.31.
KNGEWGTVCDDKWDLVSASVVCRE [LOXL2]: the protein stability index came to 3.85 ± 0.63 (treatment: DMSO) and 3.8 ± 0.73 (treatment: MLN4924 1 uM, 8 h).
For HIGNSTQATVRDAVVGRPSMDKKA [ATL3] the same measures were 3.97 ± 0.21 and 4.49 ± 0.6.
For YKREILERVDGRRLVYKFGKNSSG [ELF3] the same measures were 3.1 ± 0.22 and 3.21 ± 0.44.
For EGASPLSERCQRQLQSLCRGLGLG [FANCE] the same measures were 3.31 ± 0.13 and 3.02 ± 0.32.
For the sequence TDFKDKIVLDVGCGSGILSFFAAQ [CARM1], the protein stability index turned out to be 2.3 ± 0.43 (treatment: DMSO) and 2.27 ± 0.27 (treatment: MLN4924 1 uM, 8 h).
On to KHGKRKRGRPRKLSKEYWDCLEGK [ELF3], for which the protein stability index reads like this: (treatment: DMSO) 4.18 ± 0.44; (treatment: MLN4924 1 uM, 8 h) 4.38 ± 0.18.
For QVESRWGYSGTSDRIRFTVNRRIS [BTBD1] the same measures were 3.38 ± 0.23 and 3.53 ± 0.37.
For WEQPWASEVFGPERMPPSGAARSF [PXN] the same measures were 3.73 ± 0.33 and 3.45 ± 0.11.
As for EPPPPLHNNNNNCEENEQSLPPPA [BNIP3L], the protein stability index is, setting by setting: (treatment: DMSO) 5.51 ± 0.27; (treatment: MLN4924 1 uM, 8 h) 5.68 ± 0.13.
For PPRREPLPSRRDVYLSPRDDGYST [RBMX] the same measures were 4.09 ± 0.16 and 4.23 ± 0.29.
For KLEWAIDEDELRKSLSELVDDKFG [PSD2] the same measures were 4.19 ± 0.086 and 4.09 ± 0.26.
With EAVFLRAVKLYNSGDFRSSTEDME [P3H4], the protein stability index (treatment: DMSO) worked out at 3.69 ± 0.36 and the protein stability index (treatment: MLN4924 1 uM, 8 h) was 3.73 ± 0.52.
For TKHKCRQLTKASLKPRGCSKPPWR [SPACA9] the same measures were 2.85 ± 0.4 and 3.42 ± 0.47.
For LLLGLKDREGYTSFWNDCISSGLR [GOLPH3] the same measures were 2.43 ± 0.5 and 2.11 ± 0.23.
In the case of FLGSTEVEQPKGTEVVRDAVRKLK [GULP1], the protein stability index was determined as 4.62 ± 0.24 (treatment: DMSO) and 4.62 ± 0.16 (treatment: MLN4924 1 uM, 8 h).
For ASEYCPGKLSWGTMARALGRFKLS [WDR88] the same measures were 2.49 ± 0.42 and 2.67 ± 0.29.
For QVVTVHLQTSLENGTRVQEEPELV [FKBP8] the same measures were 4.18 ± 0.15 and 4.37 ± 0.31.
For VEPGTPPLDILAQPLEASNPALEG [DNAAF3] the same measures were 5.35 ± 0.14 and 5.36 ± 0.21.
Take ILFLVIGGMLNFMMHDQRTGPAWN [SOAT2]: the protein stability index is 3.27 ± 0.46 (treatment: DMSO) and 3.26 ± 0.55 (treatment: MLN4924 1 uM, 8 h).
For EVILGDIWKLNLQTFQWVKLPATM [KLHDC10] the same measures were 2.51 ± 0.51 and 2.21 ± 0.3.
For TFRVSSDLIKHQRIHTEEKPYKCQ [ZNF75A] the same measures were 3.67 ± 0.15 and 3.8 ± 0.23.
For SYMLQDSLEHVQLFDLMRRMLEFD [CLK3] the same measures were 2.35 ± 0.027 and 2.47 ± 0.21.
As to RLKKEEEDRIVTQNRVFAYLCKRV [CEP70], the protein stability index (treatment: DMSO) is 2.55 ± 0.31 and the protein stability index (treatment: MLN4924 1 uM, 8 h) worked out at 2.86 ± 0.43.
For QYWLDGKIIAVGVIDILPNCVSSV [ATE1] the same measures were 2.93 ± 0.54 and 2.95 ± 0.66.
For PGHIGPPGPTGPKGISGHPGEKGE [EMID1] the same measures were 5.59 ± 0.17 and 5.07 ± 0.35.
For AEKKREAKQRAKEAQERELRKREK [LRRC59] the same measures were 5.38 ± 0.12 and 5.33 ± 0.11.
For the sequence HTDMTNKQNKTPLDKSTTGVSEIL [FEM1B], the protein stability index by setting is: (treatment: DMSO) 4.85 ± 0.49; (treatment: MLN4924 1 uM, 8 h) 5.05 ± 0.25.
Turning to AAKMYHQLKKCETRKLSPGKKRCK [SMG5], the protein stability index turned out to be 3.92 ± 0.35 (treatment: DMSO) and 4.07 ± 0.37 (treatment: MLN4924 1 uM, 8 h).
Turning to AGRNVLRWDLSPEQIKTRTEELIV [NLN], the protein stability index is, setting by setting: (treatment: DMSO) 2.52 ± 0.34; (treatment: MLN4924 1 uM, 8 h) 3.23 ± 0.47.
For LTMAATFDDCLYALCVVDTIKRSS [GFOD1] the same measures were 2.54 ± 0.72 and 2.68 ± 0.57.
In the case of LNKCFIKVPREKDEPGKGGFWRID [FOXJ1], the protein stability index (treatment: DMSO) came to 2.98 ± 0.2 and the protein stability index (treatment: MLN4924 1 uM, 8 h) amounted to 2.98 ± 0.096.
For GGAGSSEDDAQSRRDEQDDDDKGD [GOLPH3] the same measures were 5.57 ± 0.24 and 5.69 ± 0.28.
For YLTGTINGDPESVASLHWDGGALL [ADAMTS4] the same measures were 2.88 ± 0.59 and 3.1 ± 0.32.
For LRELGHAEHEITELTATFTKFDRD [PKD2L1] the same measures were 4.48 ± 0.28 and 4.59 ± 0.25.
With HTGLKPYECGVCAKKFMWRDSFMR [ZBTB22], the protein stability index turned out to be 2.65 ± 0.52 (treatment: DMSO) and 2.44 ± 0.6 (treatment: MLN4924 1 uM, 8 h).
For LQLNARSFMMGQGGEAAHHTRSPY [NEUROD6] the same measures were 2.99 ± 0.22 and 3.37 ± 0.32.
Turning to EQSSCTMTPDIHELVENIKSVLKS [FAM189A2], the protein stability index was found to be 2.19 ± 0.29 (treatment: DMSO) and 2.4 ± 0.37 (treatment: MLN4924 1 uM, 8 h).
For ELFYRVNYIGTKNVIETCKEAGVQ [NSDHL] the same measures were 2.14 ± 0.21 and 2.08 ± 0.54.
For RAPAEKPRGARCSNGFPERDPPRP [GCH1] the same measures were 4.2 ± 0.3 and 4.43 ± 0.17.
For FFAFLHCWLNAFAEMLRFGDRMFY [SOAT2] the same measures were 3.14 ± 0.56 and 3.44 ± 0.23.
On to TPPETKPDPPVNFLRQKVLSLPLP [PCMTD2], for which the protein stability index was determined as 3.74 ± 0.24 (treatment: DMSO) and 3.85 ± 0.22 (treatment: MLN4924 1 uM, 8 h).
For HVEVARLLLENGAGINTHSNEFKE [ANKRD17] the same measures were 3.69 ± 0.39 and 3.39 ± 0.22.
Take RPGPQSVPLQLSAHWQCGATLTQV [FCHO1]: the protein stability index (treatment: DMSO) worked out at 2.21 ± 0.23 and the protein stability index (treatment: MLN4924 1 uM, 8 h) worked out at 2.43 ± 0.2.
For ADIPQDQLVVMHPTPQVDELDILP [BTBD10] the same measures were 5.11 ± 0.17 and 5.24 ± 0.15.
Consider ITCVSGAIVDLISRQYDKFLTHFI [FBXO33], for which the protein stability index reads like this: (treatment: DMSO) 2.85 ± 0.53; (treatment: MLN4924 1 uM, 8 h) 3.13 ± 0.44.
For GKSPSITFEYTLLQPPHESRPQPI [ADAMTSL2] the same measures were 2.83 ± 0.4 and 2.83 ± 0.29.
For VFIFYYVVEEILELHIHRLRYLSS [PKD2L1] the same measures were 2.8 ± 0.091 and 3.07 ± 0.51.

Values taken from the supplement of paper PMC10567573.
